Target: RBD of the recombinantly expressed S protein (novel coronavirus SARS-CoV-2) (UniProt P0DTC2)
Test: ELISA, RBD coated at 0.01 µg/ml, antibody 0.1 µg/ml, HRP anti-human IgG Fc

Substance irrelevant control antibody has an OD450 reading of 0.006 OD450.

From patent publication US20230116587A1
